Results published in patent US20260216242A1, “ALPP-SPECIFIC VARIANT ANTIGEN BINDING MOLECULES” (ALMAC DISCOVERY LIMITED, priority 2022, published 2026).

T1: hALPI (Homo sapiens, UniProt P09923)
T1 sequence (P09923 with tags, fused parts or gaps): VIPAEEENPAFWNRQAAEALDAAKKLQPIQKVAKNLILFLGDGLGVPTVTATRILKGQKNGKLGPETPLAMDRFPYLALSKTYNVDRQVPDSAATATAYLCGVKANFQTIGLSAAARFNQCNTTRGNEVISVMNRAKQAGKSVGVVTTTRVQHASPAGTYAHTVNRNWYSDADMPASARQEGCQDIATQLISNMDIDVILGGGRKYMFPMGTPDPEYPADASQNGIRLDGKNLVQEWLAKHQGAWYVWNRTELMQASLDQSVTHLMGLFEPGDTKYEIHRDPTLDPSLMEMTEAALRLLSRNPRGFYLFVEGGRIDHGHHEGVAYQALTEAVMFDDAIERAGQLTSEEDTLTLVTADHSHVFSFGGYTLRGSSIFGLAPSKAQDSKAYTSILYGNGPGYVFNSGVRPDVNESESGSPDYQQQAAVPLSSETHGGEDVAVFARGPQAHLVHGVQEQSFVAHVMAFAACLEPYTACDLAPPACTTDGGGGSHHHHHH


Target: T1, hALPI
Experiment: BLI binding to ALPI His
Settings: VHH-hFc fusions, very low response values
Procedure: Binding kinetics were determined using the Biolayer Interferometry (BLI) Octet K2 system (Sartorius). Human ALPP, ALPPL2, ALPL (each fused with a cysteine stabilised leucine zipper) and ALPI, (SEQ ID NO: 265, SEQ ID NO: 266 and SEQ ID NO: 267 and SEQ ID NO: 264 respectively) were immobilised in sodium acetate pH5 buffer to AR2G sensors using amine coupling. All assays were conducted in PBS with a plate temperature of 25° C. Ka (M^−1s^−1), Kd (s^−1) and KD (nM) values were determined using Octet Data Analysis High Throughput software (ForteBio) for Biolayer Interferometry.
Binding kinetics were determined using the Biolayer Interferometry (BLI) Octet K2 or R4 system (Sartorius). Human ALPP, ALPPL2 and ALPL all fused with a disulphide stabilised leucine zipper (SEQ ID NO: 265, SEQ ID NO: 266, and SEQ ID NO: 267) and ALPI His (SEQ ID NO: 264) were used in BLI experiments. […] Ka (M^−1s^−1), Kd (s^−1) and KD (nM) values were determined using Octet Data Analysis High Throughput software (Sartorius) for Biolayer Interferometry.
Binding kinetics were determined using the Biolayer Interferometry (BLI) Octet K2 or R4 system (Sartorius). […] Ka (M^−1s^−1), Kd (s^−1) and KD (nM) values were determined using Octet Data Analysis High Throughput software (Sartorius) for Biolayer Interferometry.

Row | Kd | Molecule
1 | 148 nM | B01: ALPP/ALPPL2 targeting VHH domain, SEQ ID NO: 20 (protein) VHH: QVQLVESGGGLVQAGGSLRLSCEVTRSPMPIDTMAWYRQAPGRQRELVAIISRSGSTNYADSVKGRFTISRNDTKSTMYKSTMYLKMNTLELEDTGVYYCNAVGLWNGAEYWGQGTQVTVSS
2 | 10.8 nM | F08: ALPP/ALPPL2 targeting VHH domain, SEQ ID NO: 35 (protein) VHH: QVQLVESGGGSVQAGGSLRLSCAASGPSLSNYAMGWFRQAPGKEREFVAGISWGGGRTSYTDSVKGRFTISRDNAKNTVYLQMNNLKPEDTGVYYCAGRYGRGRNVEYEYDYWGQGTQVTVSS
